Data from patent publication US20220119522A1.
Substitutions are numbered along the chain they refer to.

T1: human TREM2 full length stalk region peptide (aa 129-172) (human)
T1 sequence (peptide, biotinylated (site not stated)): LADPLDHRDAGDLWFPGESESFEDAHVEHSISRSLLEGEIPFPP

T2: human TREM2 truncated stalk peptide (aa 149-163) (human)
T2 sequence (peptide, biotinylated (site not stated)): SFEDAHVEHSISRSL

B1: CL0020124 (antibody, V domains shown)
VH: EVQLQQSGPVLVKPGASVKMSCKPSGYTFTDYYMNWVKQSHGKSLEWIGSINPYTGGSSYNQKFRGKATLTVDKSSSTAYMELNSLTSEDSAVYYCARGSYYSNLGFAYWGQGTLVTVSA
VL: DVQLTQSPSYLTASPGETITINCRASKSISKYLAWYQEKPGKTNKLLISSGSTLQSGIPSRFSGSGSGTDFTLTISSLEPEDFAMYYCQQYSEYPFTFGSGTKLEIK
B2: CL0020188 (antibody, V domains shown)
VH: EVKLLDSGGGLVQAGGSLRLSCAGSGFTFTDFYMSWIRQPPGKAPEWLGVIRNKANGYTAGYNPSVKGRFTISRDNTQNILYLQMNTLRAEDTAIYYCARLTYGFDYWGQGVMVTVSS
VL: DIVMTQGALPNPVPSGESASITCQSSKSLLHSNGKTYLNWYLQRPGQSPQLLIYWMSTRASGVSDRFSGSGSGTDFTLKISSVEAEDVGVYYCQQFLEYPFTFGSGTKLEIK
B3: CL0020141 (antibody, V domains shown)
VH: EVTLVESGGGLVQPGGSLRLSCATSGFTFTDYYMSWVRQPPGKALEWLGFIRDKANGYTTDYSASVKGRFTISRDNSQNILYLQMNTLRAEDSATYYCSRLLRAQGFAYWGQGTLVTVSA
VL: DIVMSQSPSSLGVSIGEKVIMSCTSGQSLLYSNNQKNYLAWYQQKPGQSPKLLIYWASTRESGVPDRFTGSGSGTDFTLTINSVKAEDLAVYYCQQYYRNPFTFGSGTKLEIK
B4: CL0020308 (antibody, V domains shown)
VH: QVQLKQSGPSLVQPSQSLSITCTVSGFSLTTYGIHWVRQSPGKGLEWLGVIWTGGSTAFNAAFMSRLSITKDNSKSQVFFKMNSLQADDTAIYYCAKVGFHSATDYWGQGTSVTVSS
VL: DVLMTQTPLSLPVTLGDQASISCRSSQNLVHSNGNTYLEWYLQKPGQSPKLLIYKVSNRFSGVPDRFSGSGSGTDFTLKISRVEAEDLGLYYCFQGSHVPFTFGSGTKLEIK
B5: CL0020309 (antibody, V domains shown)
VH: B4 VH with T31S, I34V, H35Q, S56T, A58D, M64K, T90S, V98I, T104V
VL: B4 VL with T14S, L29I, S81N, V99I, K108Q
B6: CL0020107 (antibody, V domains shown)
VH: QVQLQQPGAELVKPGASVKMSCRASGYTFTNYWISWVKQRPGQGLEWIGDIYPHSTSTNYNERFRSKATLTVDKSSTTAYMQLSSLTSEDSAVYYCAREGFGISAWGQGTTLTVSS
VL: QIVLTQSPAIMSASPGEKVTITCSATSSVSYMHWFQQKPGTSPKLWIYSTSNLASGVPARFSGSGSGTSHSLTISRMEAEDAATYYCQQRSSYPLTFGSGTKLELK
B7: CL0020096 (antibody, V domains shown)
VH: QIQLVQSGPELRKPGETVKISCKASGYTFTTYGMSWVKQAPGKGLKWMGWINTYSGLPRHSDDFKGRFAFSLETSASTAYLQINNLKNEDTATYFCAREVYYGSRKTAWFAYWGQGTLVTVSA
VL: DLVMSQSPSSLAVSVGERVTMSCKSSQSLLYSNDQKNYLAWYQQIPGQSPKLLIYWASTRESGVPDRFTGSGSGTDFTLTISSVKAEDLAVYFCQQYYSYPPTFGAGTKLELK

biological target: T1, human TREM2 full length stalk region peptide (aa 129-172) (human); assay: ELISA on biotinylated peptide captured by streptavidin; A450 normalised to isotype control

Q: Which fold over background (A450) does the source give for B1 here?
A: 2.1 fold

biological target: mouse TREM2 truncated stalk peptide (aa 149-163) (mouse) (UniProt Q99NH8); assay: as above

Q: With B2 as the binder, how does the fold over background (A450) read?
A: 0.9 fold

Q: B3 was tested. Which fold over background (A450) did it give?
A: 1.4 fold

Q: How did the fold over background (A450) turn out when B1 was run?
A: 1.7 fold

Q: With B4 as the binder, how does the fold over background (A450) read?
A: 1.1 fold

Q: How did the fold over background (A450) turn out when B5 was run?
A: 1.3 fold

Q: With B6 as the binder, how does the fold over background (A450) read?
A: 1.6 fold

Q: With B7 as the binder, how does the fold over background (A450) read?
A: 1.3 fold

biological target: T2, human TREM2 truncated stalk peptide (aa 149-163) (human); assay: as above

Q: Which fold over background (A450) does the source give for B2 here?
A: 3 fold

Q: How did the fold over background (A450) turn out when B3 was run?
A: 2.1 fold

Q: How did the fold over background (A450) turn out when B4 was run?
A: 2.5 fold

Q: How did the fold over background (A450) turn out when B5 was run?
A: 2.2 fold

Q: For B7, which fold over background (A450) is on record?
A: 2.2 fold
